# Numbering of substitutions follows the chain as printed.
# B1: GpH7-A5/GpH7-HA5/GpL16-k0 (antibody, human IgG1, kappa)
# heavy 1: not shown
# heavy 2: QVQLVQSGAEVKKPGASVTVSCKASGYTFTDYEMHWIRQPPGEGLEWIGAIDPKTGDTAYSESFQDRVTLTADKSTSTAYMELSSLTSEDTAVYYCTRFYSYTYWGQGTLVTVSSASTKGPSVFPLAPSSKSTSGGTAALGCLVKDYFPEPVTVSWNSGALTSGVHTFPAVLQSSGLYSLSSVVTVPSSSLGTQTYICNVNHKPSNTKVDKKVEPKSCDKTHTCPPCPAPEYLGGPSVFLFPPKPKDTLMISRTPEVTCVVVDVSHEDPEVKFNWYVDGVEVHNAKTKPREEQYNSTYRVVSVLTVLHQDWLNGKEYKCKVSNKALRAPIEKTISKAKGQPREPQVYTLPPSRDELTKNQVSLTCLVKGFYPSDIAVEWESNGQPENNYKTTPPVLDSDGSFFLYSKLTVDKSRWQQGNVFSCSVMHEALHNHYTQESLSLSP
# light: DIVMTQSPLSLPVTPGEPASISCQASESLVHSNRNTYLHWYLQKPGQSPQLLIYKVSNRFSGVPDRFSGSGSGTDFTLKISRVEAEDVGVYYCSQNTHVPPTFGQGTKVEIERTVAAPSVFIFPPSDEQLKSGTASVVCLLNNFYPREAKVQWKVDNALQSGNSQESVTEQDSKDSTYSLSSTLTLSKADYEKHKVYACEVTHQGLSSPVTKSFNRGEC
# notes: Heterodimerized anti-glypican-3 IgG1 variant
# B2: GpH7-A48/GpH7-B3-06-09D/GpL16-k0 (antibody, human IgG1, kappa)
# heavy 1: B1 heavy 2 with Y232L, D354K, H433R, E437K
# heavy 2: not shown
# light: B1 light
# notes: as for B1
# B3: GpH7-A48/GpH7-B3-15-02A/GpL16-k0 (antibody, human IgG1, kappa)
# heavy 1: B1 heavy 2 with Y232L, D354K, H433R, E437K
# heavy 2: not shown
# light: B1 light
# notes: as for B1
# B4: GpH7-A5/GpH7-HA15/GpL16-k0 (antibody, human IgG1, kappa)
# heavy 1: not shown
# heavy 2: B1 heavy 2 with Y232L, A328L
# light: B1 light
# notes: as for B1
# B5: GpH7-A5/GpH7-HA11/GpL16-k0 (antibody, human IgG1, kappa)
# heavy 1: not shown
# heavy 2: B1 heavy 2 with Y232L, S296A
# light: B1 light
# notes: as for B1
# B6: GpH7-A48/GpH7-B3-01-15Y/GpL16-k0 (antibody, human IgG1, kappa)
# heavy 1: B1 heavy 2 with Y232L, D354K, H433R, E437K
# heavy 2: not shown
# light: B1 light
# notes: as for B1
# B7: GpH7-A5/GpH7-HA7/GpL16-k0 (antibody, human IgG1, kappa)
# heavy 1: not shown
# heavy 2: B1 heavy 2 with Y232L, S237D
# light: B1 light
# notes: as for B1
# B8: GpH7-A5/GpH7-HA6/GpL16-k0 (antibody, human IgG1, kappa)
# heavy 1: not shown
# heavy 2: B1 heavy 2 with Y232L, G234W
# light: B1 light
# notes: as for B1
# B9: GpH7-A48/GpH7-B3-22-10E/GpL16-k0 (antibody, human IgG1, kappa)
# heavy 1: B1 heavy 2 with Y232L, D354K, H433R, E437K
# heavy 2: not shown
# light: B1 light
# notes: as for B1
# B10: GpH7-A5/GpH7-HA18/GpL16-k0 (antibody, human IgG1, kappa)
# heavy 1: not shown
# heavy 2: B1 heavy 2 with Y232L, I330E
# light: B1 light
# notes: as for B1
# B11: GpH7-A48/GpH7-B3-03-20W/GpL16-k0 (antibody, human IgG1, kappa)
# heavy 1: B1 heavy 2 with Y232L, D354K, H433R, E437K
# heavy 2: not shown
# light: B1 light
# notes: as for B1
# B12: GpH7-A48/GpH7-B3-20-08L/GpL16-k0 (antibody, human IgG1, kappa)
# heavy 1: B1 heavy 2 with Y232L, D354K, H433R, E437K
# heavy 2: not shown
# light: B1 light
# notes: as for B1
# Biological target: T1, FcγRIIIa extracellular domain with C-terminal His tag (human, UniProt P08637 17-208)
# T1 construct: extracellular domain; also called FcgRIIIa; CD16A
# T1 sequence (P08637 17-208): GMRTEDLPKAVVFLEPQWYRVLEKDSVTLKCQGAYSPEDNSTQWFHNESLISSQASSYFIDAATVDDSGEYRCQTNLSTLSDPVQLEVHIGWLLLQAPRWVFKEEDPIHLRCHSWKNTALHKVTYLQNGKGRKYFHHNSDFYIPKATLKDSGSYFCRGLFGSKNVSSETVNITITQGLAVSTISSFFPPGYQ
# Assay: SPR (Biacore), antibody captured on antigen peptide chip, FcγR as analyte
# From the text: The expression vectors for the respective H chains were combined in a way that each of the alterations L234Y, G236W, S298A, S239D, A330L, and I332E is present in the same H chain as P329R or in the different H chain from P329R, and the expression vector GpL16-k0 for the L chain was combined with them. Antibodies of interest were expressed and prepared according to the method described in Reference Example 1. The prepared antibodies were used to assay the FcγRIIIa-binding activity. The result of assessment using P329R on the direction of FcγRIIIa recognition by L234Y, G236W, S298A, S239D, A330L, and I332E is summarized in Table 12.
# Analysis of interaction between objective antibody and the FcγR was carried out using Biacore T100 (GE Healthcare). HBS-EP+ (GE Healthcare) was used as the running buffer, and the measurement temperature was set to 25° C. Chips produced by immobilizing the antigen peptide by the amine coupling method to a Series S Sencor Chip CM5 (GE Healthcare), or alternatively, chips produced by allowing preliminarily biotinylated antigen peptides to interact with and immobilize onto a Series S Sensor Chip SA (certified) (GE Healthcare) were used. Antibodies of interest were captured onto an antigen peptide-immobilized chip, and allowed to interact to each FcγR diluted with running buffer. To regenerate and repeatedly use the chip, the antibodies captured on the chip were washed off by reacting 10 mM glycine-HCl, pH 1.5.
row,FcγRIIIa BINDING ACTIVITY (relative),Binder
1,"60 relative, GpH7-A5/GpH7-B3/GpL16-k0 = 100",B1
2,"123 relative, GpH7-A5/GpH7-B3/GpL16-k0 = 100",B2
3,"47 relative, GpH7-A5/GpH7-B3/GpL16-k0 = 100",B3
4,"32 relative, GpH7-A5/GpH7-B3/GpL16-k0 = 100",B4
5,"84 relative, GpH7-A5/GpH7-B3/GpL16-k0 = 100",B5
6,"11 relative, GpH7-A5/GpH7-B3/GpL16-k0 = 100",B6
7,"3 relative, GpH7-A5/GpH7-B3/GpL16-k0 = 100",B7
8,"56 relative, GpH7-A5/GpH7-B3/GpL16-k0 = 100",B8
9,"189 relative, GpH7-A5/GpH7-B3/GpL16-k0 = 100",B9
10,"35 relative, GpH7-A5/GpH7-B3/GpL16-k0 = 100",B10
11,"13 relative, GpH7-A5/GpH7-B3/GpL16-k0 = 100",B11
12,"60 relative, GpH7-A5/GpH7-B3/GpL16-k0 = 100",B12
